Data on one substance can be found in patent US20240190991A1, “COMBINATION THERAPY WITH AN ANTI-CA19-9 ANTIBODY AND FOLFIRINOX IN THE TREATMENT OF CANCER” (BioNTech SE, priority 2021, published 2024).

This data set relates to locally-advanced or metastatic pancreatic ductal adenocarcinoma (PDAC). Description: Clinical study of MVT-5873 as monotherapy or combined with FOLFIRINOX in pancreatic cancer patients. The data set is classed as in vivo, human. The following applies: Group C patients; MVT 5873 0.5 mg/kg in combination with mFOLFIRINOX; one, two or six cycles of therapy. On the procedure:
A clinical study is performed comparing the therapeutic effect of the use of the MVT-5873 monoclonal antibody (5B1 monoclonal antibody) as a monotherapy or in combination with FOLFIRINOX in the treatment of pancreatic cancer, in patients with locally-advanced or metastatic pancreatic ductal adenocarcinoma (PDAC). Patients having other CA19-9-positive malignancies may also be included in the study.
The patients will be subdivided into the following groups: • Group A: A Q4 week monotherapy schedule employing a single dose of MVT 5873 administered 7 days prior to Cycle 1 Day 1 • Group B: A Q2 week monotherapy schedule employing a single dose of MVT 5873 administered 7 days prior to Cycle 1 Day 1 • Group C: A Q2 week schedule in combination with mFOLFIRINOX mFOLFIRINOX is a dose amount of FOLFIRINOX, in which FOLFIRINOX is administered at a dose of 65 mg/m^2 oxaliplatin, 400 mg/m^2 leucovorin, 150 mg/m^2 irinotecan, and 1200 mg/m^2 5-fluorouracil.
In certain groups, the patients, after completing the combination therapy will be administered the antibody having the ability to bind CA 19-9 as a monotherapy.
The administration schedule for Group C is depicted in FIG. 1.
A number of patients in Group C have been administered MVT 5873 at 0.5 mg/kg in combination with mFOLFIRINOX (65 mg/m^2 oxaliplatin, 400 mg/m^2 leucovorin, 150 mg/m^2 irinotecan, and 1200 mg/m^2 5-fluorouracil). […]

As to “MVT 5873: fully human IgG1 monoclonal antibody that targets sialyl Lewis A (sLe^a), an epitope on CA19-9; VH and VL of SEQ ID NO: 2 and 4”, the dose limiting toxicities entry is recorded as “No dose limiting toxicities”.
